Results as given in publication PMC13381548.

Test system: NX4-NS20-NX1 (X-NS20-X) (designed (from TALE PthXo1))
Test: BLI
Settings: BLI: 25 mM Tris (pH 7 for NS20, pH 8 for NS14), 150 mM NaCl, 10 mM MgCl2, 0.5% BSA, 0.5% Tween-20, 25 C, EMSA: 1% agarose, 1x TAE, 110 V

Question: For “AAAAAAATCAGACCGACATCTAATCCGCAACGA (double strand) [X-NS20-X random]”, which Kd (10 mM MgCl2, stated weak interactions, Kd > ~700 nM) is on record?
Answer: > 700 nM

Question: How did the Kd turn out when “AAAAAAATCTAGCAACCTCAAACAGACACCAGA (double strand) [X-NS20-X target]” was run?
Answer: 45 nM
